Experiment [1] addresses 57CrGPDH705-FLAG, di-domain glycerol-3-phosphate dehydrogenase from Chlamydomonas reinhardtii with 30 additional N-terminal amino acids (Chlamydomonas reinhardtii). The experiment in a line: SEC. A general note: Size exclusion chromatography separates by hydrodynamic size, large species first.
Experiment [2] addresses 87CrGPDH705-FLAG, di-domain glycerol-3-phosphate dehydrogenase from Chlamydomonas reinhardtii with the chloroplast targeting sequence removed (Chlamydomonas reinhardtii). The experiment in a line: SEC.

In the case of “57CrGPDH705-FLAG, di-domain glycerol-3-phosphate dehydrogenase from Chlamydomonas reinhardtii with 30 additional N-terminal amino acids (enzyme)”, the stoichiometry N in experiment [1] was 5.
With “87CrGPDH705-FLAG, di-domain glycerol-3-phosphate dehydrogenase from Chlamydomonas reinhardtii with the chloroplast targeting sequence removed (enzyme)”, the stoichiometry N in experiment [2] was 4.

The stoichiometry N is the number of molecules, sites or subunits per partner or assembly.

Values taken from PMC12157500.
